Molecular target: IL2Rαβγ, the high affinity IL-2 receptor, on human Treg cells (human) (UniProt P01589)
Experiment: cell-based or functional assay

Chain of IL2Rαβγ, the high affinity IL-2 receptor, on human Treg cells (human) (P01589 22-272, chain 1 of 3): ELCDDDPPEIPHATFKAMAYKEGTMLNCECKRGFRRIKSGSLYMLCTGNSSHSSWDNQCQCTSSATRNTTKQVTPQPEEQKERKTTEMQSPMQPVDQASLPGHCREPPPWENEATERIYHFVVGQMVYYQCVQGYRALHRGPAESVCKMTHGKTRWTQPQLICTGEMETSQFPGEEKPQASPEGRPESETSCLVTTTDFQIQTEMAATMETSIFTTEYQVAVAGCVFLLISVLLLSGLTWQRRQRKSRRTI
Chain of IL2Rαβγ, the high affinity IL-2 receptor, on human Treg cells (human) (P14784 27-551, chain 2 of 3, further chain): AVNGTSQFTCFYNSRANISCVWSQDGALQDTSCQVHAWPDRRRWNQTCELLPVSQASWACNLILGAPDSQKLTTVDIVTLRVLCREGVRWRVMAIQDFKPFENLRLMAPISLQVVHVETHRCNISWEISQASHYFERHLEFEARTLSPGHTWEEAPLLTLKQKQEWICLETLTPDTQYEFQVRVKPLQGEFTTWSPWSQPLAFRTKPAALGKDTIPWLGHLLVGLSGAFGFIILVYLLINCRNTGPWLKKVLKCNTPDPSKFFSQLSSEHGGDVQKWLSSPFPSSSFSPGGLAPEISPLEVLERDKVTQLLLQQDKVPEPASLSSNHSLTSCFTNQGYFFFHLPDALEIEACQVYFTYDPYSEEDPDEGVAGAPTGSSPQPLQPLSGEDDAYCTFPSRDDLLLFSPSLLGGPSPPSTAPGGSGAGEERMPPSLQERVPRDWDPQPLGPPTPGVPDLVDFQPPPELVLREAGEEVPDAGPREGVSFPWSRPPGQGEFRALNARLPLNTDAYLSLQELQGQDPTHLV
Chain of IL2Rαβγ, the high affinity IL-2 receptor, on human Treg cells (human) (P31785 23-369, chain 3 of 3, further chain): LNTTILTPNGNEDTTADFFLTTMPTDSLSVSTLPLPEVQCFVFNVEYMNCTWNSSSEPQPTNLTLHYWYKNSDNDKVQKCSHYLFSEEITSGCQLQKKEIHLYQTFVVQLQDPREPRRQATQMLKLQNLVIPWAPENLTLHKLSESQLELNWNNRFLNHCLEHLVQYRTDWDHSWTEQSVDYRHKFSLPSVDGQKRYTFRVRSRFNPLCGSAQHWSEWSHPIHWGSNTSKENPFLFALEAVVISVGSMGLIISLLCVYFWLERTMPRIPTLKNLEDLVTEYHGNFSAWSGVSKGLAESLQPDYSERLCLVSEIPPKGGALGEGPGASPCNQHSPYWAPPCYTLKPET

“N88R/IL2 (from UniProt P60568 21-153) (ligand)” showed a Percentage of pSTAT5+ cells, Treg cells in human PBMC, 10^-8 M protein of 99.9%.
